T1: Catalytic domain of human MMP-1 (MMP-1cat) (human, UniProt P03956 100-269)
T1 sequence (looked up): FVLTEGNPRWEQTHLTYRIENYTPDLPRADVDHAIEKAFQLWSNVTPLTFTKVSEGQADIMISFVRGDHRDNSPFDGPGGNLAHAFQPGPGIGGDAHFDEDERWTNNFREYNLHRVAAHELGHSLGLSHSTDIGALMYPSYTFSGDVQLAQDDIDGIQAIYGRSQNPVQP

T2: ADAMTS4-2 (human ADAMTS-4 deletion mutant, C-terminal FLAG-tag) (human, UniProt O75173 213-685)
T2 sequence (looked up): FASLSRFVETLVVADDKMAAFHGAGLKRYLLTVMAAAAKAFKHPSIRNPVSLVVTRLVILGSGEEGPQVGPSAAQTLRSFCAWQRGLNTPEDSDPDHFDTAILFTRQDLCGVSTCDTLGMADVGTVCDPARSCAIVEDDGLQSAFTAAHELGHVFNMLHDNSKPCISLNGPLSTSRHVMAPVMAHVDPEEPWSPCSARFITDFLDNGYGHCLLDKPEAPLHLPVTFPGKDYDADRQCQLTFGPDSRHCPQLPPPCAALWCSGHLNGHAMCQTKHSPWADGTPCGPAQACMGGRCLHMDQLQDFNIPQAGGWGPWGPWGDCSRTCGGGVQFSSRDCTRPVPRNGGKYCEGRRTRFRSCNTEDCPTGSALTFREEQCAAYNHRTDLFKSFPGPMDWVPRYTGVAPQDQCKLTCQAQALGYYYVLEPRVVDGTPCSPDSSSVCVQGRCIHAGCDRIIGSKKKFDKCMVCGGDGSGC

T3: ADAMTS5-2 (human ADAMTS-5 deletion mutant, C-terminal FLAG-tag) (human, UniProt Q9UNA0 262-874)
T3 sequence (looked up): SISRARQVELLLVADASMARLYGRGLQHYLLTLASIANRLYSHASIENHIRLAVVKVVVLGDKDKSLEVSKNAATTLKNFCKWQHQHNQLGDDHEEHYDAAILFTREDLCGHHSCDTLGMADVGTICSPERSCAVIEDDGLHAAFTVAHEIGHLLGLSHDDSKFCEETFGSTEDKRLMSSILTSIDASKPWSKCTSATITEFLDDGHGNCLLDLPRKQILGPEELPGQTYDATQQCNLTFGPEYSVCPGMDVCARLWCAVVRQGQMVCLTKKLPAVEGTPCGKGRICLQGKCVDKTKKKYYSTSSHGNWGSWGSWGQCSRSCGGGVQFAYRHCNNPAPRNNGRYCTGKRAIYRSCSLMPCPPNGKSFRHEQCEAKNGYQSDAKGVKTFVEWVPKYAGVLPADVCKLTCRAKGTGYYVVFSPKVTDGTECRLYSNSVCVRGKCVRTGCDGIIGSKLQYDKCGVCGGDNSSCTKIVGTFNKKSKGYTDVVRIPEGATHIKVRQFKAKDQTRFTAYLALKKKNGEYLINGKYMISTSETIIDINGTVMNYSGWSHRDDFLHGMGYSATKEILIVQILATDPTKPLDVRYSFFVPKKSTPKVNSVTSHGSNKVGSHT


How the values were obtained:
Assay in all cases: enzyme inhibition kinetics
[1] = target: Catalytic domain of human MMP-3 (MMP-3cat) (human, UniProt P08254 100-272)
Catalytic domain of human MMP-3 (MMP-3cat), sequence (P08254 100-272): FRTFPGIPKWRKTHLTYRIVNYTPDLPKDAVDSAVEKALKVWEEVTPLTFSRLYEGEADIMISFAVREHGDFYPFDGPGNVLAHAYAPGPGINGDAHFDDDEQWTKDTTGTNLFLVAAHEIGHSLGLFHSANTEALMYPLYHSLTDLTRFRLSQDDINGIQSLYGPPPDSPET

[2] = target: T1, Catalytic domain of human MMP-1 …
[3] = target: T2, ADAMTS4-2 (human ADAMTS-4 deletion …)
[4] = target: T3, ADAMTS5-2 (human ADAMTS-5 deletion …)

Binder	Ki [1] [nM]	Ki [2] [nM]	Ki [3] [nM]	Ki [4] [nM]
N-terminal domain of human TIMP-3 with C-terminal His-tag, expressed in Escherichia coli and folded in vitro (domain or fragment, UniProt P35625 24-144, looked up) CTCSPSHPQDAFCNSDIVIRAKVVGKKLVKEGPFGTLVYTIKQMKMYRGFTKMPHVQYIHTEASESLCGLKLEVNKYQYLLTGRVYDGKMYTGLCNFVERWDQLTLSQRKGLNYRYHLGCN	11.1	0.8	0.79	0.32
Non-glycosylated full-length human TIMP-3, FLAG-tagged, from HEK293 cells treated with tunicamycin (natural protein, UniProt P35625 24-211, looked up) CTCSPSHPQDAFCNSDIVIRAKVVGKKLVKEGPFGTLVYTIKQMKMYRGFTKMPHVQYIHTEASESLCGLKLEVNKYQYLLTGRVYDGKMYTGLCNFVERWDQLTLSQRKGLNYRYHLGCNCKIKSCYYLPCFVTSKNECLWTDMLSNFGYPGYQSKHYACIRQKGGYCSWYRGWAPPDKSIINATDP	–	–	0.2	1.37

Reference: paper PMC2835468 (Matrix biology : journal of the International Society for …, 2009)
